Laboratory results as given in patent US20230220084A1 (DRAGONFLY THERAPEUTICS, published 2023).
Blank lines part the entries; values can stand above or below the binder they belong to.

Experiments:
[1] = biological target: T1, human CLEC12A expressed on cells (human, UniProt Q5QGZ9 1-265); experiment: flow cytometry, PL21 cells
T1 construct: whole, on cells; also called RMA-hCLEC12A; hCLEC12A+Ba/F3
T1 sequence (looked up): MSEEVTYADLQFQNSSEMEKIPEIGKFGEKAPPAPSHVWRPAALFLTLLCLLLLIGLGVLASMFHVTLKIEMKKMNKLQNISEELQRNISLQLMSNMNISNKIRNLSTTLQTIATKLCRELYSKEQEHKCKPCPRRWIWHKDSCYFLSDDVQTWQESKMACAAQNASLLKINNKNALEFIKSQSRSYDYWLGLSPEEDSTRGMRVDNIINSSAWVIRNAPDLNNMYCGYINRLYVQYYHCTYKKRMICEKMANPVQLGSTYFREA

[2] = biological target: T2, hCLEC12A-His fusion protein (human, UniProt Q5QGZ9 65-265, limits assumed); experiment: SPR, purified murine mAb
T2 construct: Recombinant His-tagged human CLEC12A; also called Human CLEC12A-His; recombinant human CLEC12A
T2 sequence (looked up): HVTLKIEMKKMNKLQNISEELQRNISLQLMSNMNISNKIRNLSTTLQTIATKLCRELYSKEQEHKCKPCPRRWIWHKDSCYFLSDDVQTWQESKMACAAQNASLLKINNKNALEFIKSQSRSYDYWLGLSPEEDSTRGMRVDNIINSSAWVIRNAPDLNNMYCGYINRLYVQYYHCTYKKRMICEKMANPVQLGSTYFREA

[3] = biological target: T2, hCLEC12A-His fusion protein; experiment: SPR, analyte glycosylated hCLEC12A
[4] = biological target: T3, De-sialylated hCLEC12A (human, UniProt Q5QGZ9 65-265, limits assumed, glycans de-sialylated); experiment: SPR, analyte de-sialylated hCLEC12A
T3 construct: Same protein as m1 after removal of sialic acid; also called de-sialylated version of hCLEC12A
T3 sequence (looked up): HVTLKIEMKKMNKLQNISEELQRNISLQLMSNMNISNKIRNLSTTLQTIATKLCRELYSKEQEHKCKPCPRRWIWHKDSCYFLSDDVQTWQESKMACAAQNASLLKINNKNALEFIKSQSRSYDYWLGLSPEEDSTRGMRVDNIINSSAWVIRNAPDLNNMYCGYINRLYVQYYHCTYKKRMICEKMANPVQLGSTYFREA

[5] = biological target: T4, De-glycosylated hCLEC12A (human, UniProt Q5QGZ9 65-265, limits assumed, N-glycans removed with PNGase); experiment: SPR, analyte de-glycosylated hCLEC12A
T4 construct: Same protein as m1 after PNGase treatment; also called PNGase-treated hCLEC12A; deglycosylated version of hCLEC12A
T4 sequence (looked up): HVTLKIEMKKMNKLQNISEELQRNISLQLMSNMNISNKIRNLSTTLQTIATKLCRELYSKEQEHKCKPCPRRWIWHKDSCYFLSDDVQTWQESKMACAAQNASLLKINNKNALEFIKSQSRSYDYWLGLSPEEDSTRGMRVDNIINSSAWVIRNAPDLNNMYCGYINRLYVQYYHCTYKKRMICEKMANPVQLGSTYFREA

[6] = biological target: T2, hCLEC12A-His fusion protein; experiment: SPR screening, fully purified murine mAb
[7] = biological target: T5, cCLEC12A-His (cynomolgus monkey, UniProt A0A2K5WXQ4 71-271); experiment: SPR, purified murine mAb, Cyno CLEC12A-His
T5 construct: Recombinant His-tagged cynomolgus CLEC12A; also called Cyno CLEC12A-His; recombinant cyno CLEC12A
T5 sequence: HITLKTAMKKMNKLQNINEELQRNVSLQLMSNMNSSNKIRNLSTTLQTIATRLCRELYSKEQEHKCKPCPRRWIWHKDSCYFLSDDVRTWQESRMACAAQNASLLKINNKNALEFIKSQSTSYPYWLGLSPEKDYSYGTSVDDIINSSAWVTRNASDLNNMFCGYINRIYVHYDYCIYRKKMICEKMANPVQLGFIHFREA

[8] = biological target: T5, cCLEC12A-His; experiment: SPR, purified murine mAb
[9] = biological target: T2, hCLEC12A-His fusion protein; experiment: yeast display, flow cytometry
[10] = biological target: T2, hCLEC12A-His fusion protein; experiment: yeast display flow cytometry with hCLEC12A-his (PE-A against FITC-A)
[11] = biological target: T2, hCLEC12A-His fusion protein; experiment: SPR, purified murine mAb, Human CLEC12A-His
[12] = biological target: T2, hCLEC12A-His fusion protein; experiment: SPR screening

B1: Genentech-h6E7 (antibody, V domains shown)
VH: EVQLVQSGAEVKKPGASVKVSCKASGYSFTDYYMHWVRQAPGQGLEWIGRINPYNGAAFYSQNFKDRVTLTVDTSTSTAYLELSSLRSEDTAVYYCAIERGADLEGYAMDYWGQGTLVTVSS
VL: DIQMTQSPSSLSASVGDRVTITCRASQSVSTSSYNYMHWYQQKPGKPPKLLIKYASNLESGVPSRFSGSGSGTDFTLTISSLQPEDFATYYCQHSWEIPLTFGQGTKVEIK
- EC50 [1]: 5 nM
- Max MFI [1]: 265 MFI

B2: 16B8.C8 (antibody, V domains shown)
VH: EVQLQESGPGLVQPSQSLSITCTVSGFSLTNYGLHWVRQSPGKGLEWLGVIWSGGKTDYNTPFKSRLSISKDISKNQVFFKMNSLQPNDTAIYFCAKYDYDDSLDYWGQGTSVTVSS
VL: DIQMNQSPSSLSASLGDTIAITCHASQNINFWLSWYQQKPGNIPKLLIYEASNLHTGVPSRFSGSGSGTRFTLTISSLQPEDIATYYCQQSHSYPLTFGQGTKLEIK
notes: Murine mAb purified from the hybridoma subclone; also called Murine 16B8 mAb; Murine 16B8. mAb
- Kd [2]: 0.01 nM
- koff [2]: 4.44e-05 s⁻¹
- kon [2]: 4.05e+06 M⁻¹ s⁻¹
- EC50 [1]: 0.18 nM
- Max MFI [1]: 300 MFI
- Kd [3]: 0.012 nM
- koff [3]: 4.7e-05 s⁻¹
- kon [3]: 4.05e+06 M⁻¹ s⁻¹
- Kd [4]: 0.007 nM
- koff [4]: 3.62e-05 s⁻¹
- kon [4]: 5.25e+06 M⁻¹ s⁻¹
- Kd [5]: 0.011 nM
- koff [5]: 4.45e-05 s⁻¹
- kon [5]: 4.26e+06 M⁻¹ s⁻¹
- Kd [6]: 0.008 nM
- koff [6]: 2.35e-05 s⁻¹
- kon [6]: 3.03e+06 M⁻¹ s⁻¹
- binding result [7]: no binding

B3: Merus-CLL1 (antibody, V domains shown)
VH: EVQLVQSGAEVKKPGASVKVSCKASGYTFTSYYMHWVRQAPGQGLEWMGIINPSGGSTSYAQKFQGRVTMTRDTSTSTVYMELSSLRSEDTAVYYCARGNYGDEFDYWGQGTLVTVSS
VL: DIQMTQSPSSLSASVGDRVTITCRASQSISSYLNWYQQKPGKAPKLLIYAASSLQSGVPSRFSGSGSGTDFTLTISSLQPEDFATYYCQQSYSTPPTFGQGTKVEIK
- EC50 [1]: 2.02 nM
- Max MFI [1]: 201 MFI

B4: 9E4.B7 (antibody, V domains shown)
VH: EVQLQESGAELMKPGASVKISCRTTGYTFSTYWIEWVKQRPGRGPEWIGELFPGNSDTTLNEKFTGKATFTADSSSNTAYMQLSSLTSEDSAVYYCARSGYYGSSLDYWGQGTTLTVSS
VL: GIVMTQSPASLSASVGETVTITCRAGENIHSYLAWYQQKQGKSPQLLVYNAKTLAEGVPSRFSGSGSGTQFSLKINSLQPEDFGSYYCQHHYGTPRTFGGGTKLEIK
notes: Murine mAb purified from the hybridoma subclone
- EC50 [1]: 0.64 nM
- Max MFI [1]: 186 MFI
- binding result [7]: no binding

B5: 15A10.G8 (antibody, V domains shown)
VH: EVQLQESGAELVRSGASIKLSCAASAFNIKDYFIHWVRQRPDQGLEWIGWIDPENDDTEYAPKFQDKATMTADTSSNTAYLQLSSLTSADTAVYYCNALWSRGGYFDYWGQGTTLTVSS
VL: EVLLTQSPAIIAASPGEKVTITCSARSSVSYMSWYQQKPGSSPKIWIYGISKLASGVPARFSGSGSGTYFSFTINNLEAEDVATYYCQQRSYYPFTFGSGTKLEIK
notes: as for B4
- Kd [2]: 1.6 nM
- koff [2]: 0.000494 s⁻¹
- kon [2]: 301000 M⁻¹ s⁻¹
- Kd [8]: 3.3 nM
- koff [8]: 0.000659 s⁻¹
- kon [8]: 196000 M⁻¹ s⁻¹

B13: 9F11.B7 (antibody, V domains shown)
VH: EVQLQESGGGLVQPGGSRKLSCAASGFTFNSFGMHWVRQAPEKGLEWVAFISSGSTSIYYANTVKGRFTISRDNPKNTLFLQMTSLRSEDTAMYYCARDGYPTGGAMDYWGQGTSVTVSS
VL: DIKMTQSPSSMYASLGERVTITCKASQDIYNYLSWFQLKPGKSPRPLIYRANILVSGVPSKFSGSGSGQDYSLTINSLEYEDLGIYYCLQFDAFPFTFGSGTKLEIK
notes: as for B4
- Kd [2]: 1.4 nM
- koff [2]: 0.00157 s⁻¹
- kon [2]: 1.14e+06 M⁻¹ s⁻¹
- EC50 [1]: 0.56 nM
- Max MFI [1]: 217 MFI
- binding result [7]: no binding

More lines, now with the values ahead:

- binding result [9]: binds
B6: scFv CDRH3 variant YDYDDALDY (SEQ ID NO:141), yeast display (scFv)
scFv: QLQLQESGPGLVKPSETLSLTCTVSGFSLTNYGLHWIRQPPGKCLEWIGVIWSGGKTDYNPSLKSRVTISKDTSKNQFSLKLSSVQAADTAVYYCAKYDYDDALDYWGQGTLVTVSSGGGGSGGGGSGGGGSGGGGSDIQMTQSPSSLSASVGDRVTITCHASQNINFWLSWYQQKPGKAPKLLIYEASNLHTGVPSRFSGSGSGTRFTLTISSLQPEDIATYYCQQSHSYPLTFGCGTKLEIK

- binding result [10]: no binding
B7: scFv CDRH3 variant YDYDESLDY (SEQ ID NO:146), yeast display (scFv)
scFv: QLQLQESGPGLVKPSETLSLTCTVSGFSLTNYGLHWIRQPPGKCLEWIGVIWSGGKTDYNPSLKSRVTISKDTSKNQFSLKLSSVQAADTAVYYCAKYDYDESLDYWGQGTLVTVSSGGGGSGGGGSGGGGSGGGGSDIQMTQSPSSLSASVGDRVTITCHASQNINFWLSWYQQKPGKAPKLLIYEASNLHTGVPSRFSGSGSGTRFTLTISSLQPEDIATYYCQQSHSYPLTFGCGTKLEIK
notes: As m72

- binding result [10]: no binding
B8: scFv CDRH3 variant YDYDDTLDY (SEQ ID NO:145), yeast display (scFv)
scFv: QLQLQESGPGLVKPSETLSLTCTVSGFSLTNYGLHWIRQPPGKCLEWIGVIWSGGKTDYNPSLKSRVTISKDTSKNQFSLKLSSVQAADTAVYYCAKYDYDDTLDYWGQGTLVTVSSGGGGSGGGGSGGGGSGGGGSDIQMTQSPSSLSASVGDRVTITCHASQNINFWLSWYQQKPGKAPKLLIYEASNLHTGVPSRFSGSGSGTRFTLTISSLQPEDIATYYCQQSHSYPLTFGCGTKLEIK
notes: As m72

- binding result [9]: binds
B9: scFv CDRH3 variant YDYDDILDY (SEQ ID NO:142), yeast display (scFv)
scFv: QLQLQESGPGLVKPSETLSLTCTVSGFSLTNYGLHWIRQPPGKCLEWIGVIWSGGKTDYNPSLKSRVTISKDTSKNQFSLKLSSVQAADTAVYYCAKYDYDDILDYWGQGTLVTVSSGGGGSGGGGSGGGGSGGGGSDIQMTQSPSSLSASVGDRVTITCHASQNINFWLSWYQQKPGKAPKLLIYEASNLHTGVPSRFSGSGSGTRFTLTISSLQPEDIATYYCQQSHSYPLTFGCGTKLEIK
notes: As m72

- binding result [9]: binds
B10: scFv CDRH3 variant YDYDDLLDY (SEQ ID NO:143), yeast display (scFv)
scFv: QLQLQESGPGLVKPSETLSLTCTVSGFSLTNYGLHWIRQPPGKCLEWIGVIWSGGKTDYNPSLKSRVTISKDTSKNQFSLKLSSVQAADTAVYYCAKYDYDDLLDYWGQGTLVTVSSGGGGSGGGGSGGGGSGGGGSDIQMTQSPSSLSASVGDRVTITCHASQNINFWLSWYQQKPGKAPKLLIYEASNLHTGVPSRFSGSGSGTRFTLTISSLQPEDIATYYCQQSHSYPLTFGCGTKLEIK
notes: As m72

- binding result [10]: no binding
B11: scFv CDRH3 variant YDYDDVLDY (SEQ ID NO:144), yeast display (scFv)
scFv: QLQLQESGPGLVKPSETLSLTCTVSGFSLTNYGLHWIRQPPGKCLEWIGVIWSGGKTDYNPSLKSRVTISKDTSKNQFSLKLSSVQAADTAVYYCAKYDYDDVLDYWGQGTLVTVSSGGGGSGGGGSGGGGSGGGGSDIQMTQSPSSLSASVGDRVTITCHASQNINFWLSWYQQKPGKAPKLLIYEASNLHTGVPSRFSGSGSGTRFTLTISSLQPEDIATYYCQQSHSYPLTFGCGTKLEIK
notes: As m72

- binding result [11]: binds
B12: 13E1.A4 (antibody, V domains shown)
VH: EVQLQESGPELEKPGASVRISCKASGYSFTAYNMNWVKQSNGKSLEWIGNIDPSYGDATYNQKFKGKATLTVDKSSSTAYMQLKSLTSEDSAVYYCARDNYYGSGYFDYWGQGTTLTVSS
VL: SVLMTQTPLSLPVSLGDRASISCRSSQGIVHINGNTYLEWYLQKPGQSPKLLIYKVSNRFSGVPDRFSGSGSGTDFTLKISRVEAEDLGVYYCFQGSHVPWTFGGGTKLEIK
notes: as for B4

- Kd [12]: 1.07 nM
- koff [12]: 0.00102 s⁻¹
- kon [12]: 950000 M⁻¹ s⁻¹
B14: m9F11-hIgG1 (antibody, V domains shown)
VH: EVQLQESGGGLVQPGGSRKLSCAASGFTFNSFGMHWVRQAPEKGLEWVAFISSGSTSIYYANTVKGRFTISRDNPKNTLFLQMTSLRSEDTAMYYCARDGYPTGGAMDYWGQGTSVTVSS
VL: DIKMTQSPSSMYASLGERVTITCKASQDIYNYLSWFQLKPGKSPRPLIYRANILVSGVPSKFSGSGSGQDYSLTINSLEYEDLGIYYCLQFDAFPFTFGSGTKLEIK
notes: also called chimeric parent mouse 9F11.B7 mAb
